The series concerns O=CC(O)COP(=O)(O)O. The experiment in a line: Michaelis-Menten kinetics of purified enzyme (Km), coupled alpha-GDH/NADH assay. It is filed as biochemical, Giardia duodenalis.

What is called Km is the substrate concentration at which the rate is half of its maximum. A word on the kcat/Km: it is the turnover number divided by the Michaelis constant. In the case of “Giardia lamblia triosephosphate isomerase (GlTIM Tmut) (Giardia duodenalis; C202A/C222A/C228A)”, the Km turned out to be 1200 ± 90 µM and the kcat/Km turned out to be 1.92e+06 M⁻¹ s⁻¹.
